Results as given in the supplement of paper PMC9170038.

Tested on: K4 kissing-loop RNA reporter
Test: apparent KD of K4 kissing-loop reporter; higher = weaker reporter binding
Conditions: Eterna round: R107
Method: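 RNA-MaP round R107: designed RNA switches with theophylline, tryptophan, arginine or FMN aptamers are transcribed on-chip within common flanks. They are titrated with a labelled K4 kissing-loop RNA reporter in RNA-MaP buffer (100 mM Tris pH 7.5, 80 mM KCl, 4 mM MgCl2), without ligand or with the indicated ligand. Median apparent KD per design.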

[1] = input ligand: theophylline 20 uM
[2] = input ligand: tryptophan 2.4 mM
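Note: bound reporter read as fluorescence of individual clusters on recovered sequencing chips by microscopy, with normalized cluster intensities fitted with a binding model.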

| Sequence | apparent KD of K4 kissing-loop reporter (input ligand: FMN 200 uM) [µM] | apparent KD of K4 kissing-loop reporter (input ligand: arginine 13.2 mM) [µM] | apparent KD of K4 kissing-loop reporter (input ligand: none) [µM] | apparent KD of K4 kissing-loop reporter [1] [µM] | apparent KD of K4 kissing-loop reporter [2] [µM] |
| --- | --- | --- | --- | --- | --- |
| CCAGGACGAUGAGGAUGAUGAAUUACUGAAGGAGCGCAUAUGGUUGCAGGUAGGUCGCGGUGAACAAGUAUAGUGAUGUUAUGCC [SSArgA.V] | 0.704 | 0.424 | 0.693 | 0.519 | 0.631 |
| UUUUUAUUCAGUGAUGUUGAAUUUAUAUCAGAGGAUAUGCAUAAAAGCAGAAGGCUGAAAUACUAUACUUUAAUAAAUUAUAUUU [JR_SSFMNA_Sub017] | 0.249 | 0.326 | 0.32 | 0.37 | 0.217 |
| CCGGGCGGCCGAAGGAGCGGGCGGACCCGAGUGAUGUUCGGGUGGACCGUGAGGUCCGGUGCCCAGGUAGGUCGCGGUUCCGUCC [#2 Same State - Arginine B Attempt #6 (HarryS)] | 0.2 | 0.101 | 0.159 | 0.0975 | 0.121 |
| UACUUAUAUAUCAACUUAAAUUAUUCAGAAGGAGCGUGAUCAUUCACAGGUAGGUCGCUGAACUAGUGAUGUUAGUUUUAAUUUU [JR_Nu_ExcArginiA_Sub023] | 0.0679 | 0.146 | 0.0813 | 0.126 | 0.0615 |
| UUUGGUUGUGGUGUUGAUUAGGGAGCGGAAGGAGCGCCGAGGAGGGCAGGUAGGUCGCCGGAAUGUAGUGAUGUUGCAUAGAGGU [ExArgA.Ad] | 0.325 | 0.277 | 0.198 | 0.603 | 0.341 |
| AUGUGGAGCGACGUUUAGAGAAACCGGGAAGGAGCGCGGAUAACCGCAGGUAGGUCGCCUGGUUGCCAGUGAUGUUGGCGACGUG [Exclusion Arg A GF 25] | 0.0874 | 0.222 | 0.144 | 0.096 | 0.138 |
| AGUUUAGAGUGACUCGAUAAGAGUCACAAACGAGGACCGGUACGGCCGCCACUCGAAAUAACGAGAGUGAUGUUCUCGCUGGGUA [FiskerMod 4 - Jieux - Same State Tryptophan A] | 0.317 | 0.33 | 0.342 | 0.317 | 0.0933 |
| UGUCAUUGGUCGGCCGCCACUCCAUAACGAGUGAUGUUCUAAAAGACGGAUCGAAAGAUCUGUCGGAGGACCGGGACCGAUGACU [FiskerMod 6 - Jieux - Same State - Tryptophan B] | 0.558 | 0.308 | 0.622 | 0.274 | 1.14 |
| GAUUCAGUGAUGUUGGAAGGCGAGCGGGAUACCAGCCGAGACUCAGGCCCUUGGCAGCCCACAUAUCCCAGGUAGAUAGUAGAUC [Same State - Theophylline A (Freestyle 8)] | 0.193 | 0.106 | 0.129 | 0.166 | 0.135 |
| CGCGACGUGGUCACGCCAGUCUCGUUAACCAAGGAUAUUGAGAAGACAAGAAGGUGGAUGUACCAUAGUGAUGUUGUGGUCAGUA [theeternabot_sameState_KL_FMN_A_17] | 0.416 | 0.356 | 0.465 | 0.448 | 0.388 |
| CGCGUUGGUUGAGAGGUUGGCGCGAAUGAUACCAGUAUAUAAGAAUACCCUUGGCAGCAUAAGAAAGAUAUAGUGAUGUUGUAUA [SSTheophA.I] | 0.469 | 0.232 | 0.454 | 0.289 | 0.42 |
| AUUAAUUUCAGAGGAUAUGCUUAAUUGAUUAAAUAUAAUCUAUUAUGCAGUGAUGUUGCAUUUUUUGCAGAAGGCUGAUUUAUAA [JR_SSFMNB_Sub017] | 0.136 | 0.5 | 0.506 | 0.485 | 0.385 |
| GGCACGUUCCCUUGAUCAGUGAUGUUGUUUCGAGGACCGGUACGGCCGCCACUCGCUCGGCGUUCGCCCAGGCCCGGAAAACUGC [theeternabot_exclusion_KL_Trp_A_13] | 0.241 | 0.207 | 0.224 | 0.217 | 0.225 |
| ACGCUGGAUGAAUAACAUCUAGCGAAAAUUCGAGGACCGGUACGGCCGCCACUCGAGCUAACUGCGAGUGAUGUUCGAUAAUAAA [Mat - Mod of OpenEnded 3 - D6] | 0.196 | 0.374 | 0.309 | 0.497 | 0.0721 |
| ACGAUCAUGGCAGGAUAUACGAAUGCAUUAGGGCUGCCAGUGAUGUUGGUGGACCGAGGACGUAGAGUAGAAGGGCCGACUUAAA [Leonmain] | 0.138 | 0.169 | 0.139 | 0.0864 | 0.157 |
| AAGAAUAAUCUUGCAGUGAUGUUGCAAGAUACCAGCAUCGAAAGAUGCCCUUGGCAGCUUGAAAACAUCACUAUCAAGCUGCAUA [Design2] | 0.62 | 0.452 | 0.664 | 0.552 | 0.558 |

| Sequence | apparent KD of K4 kissing-loop reporter (input ligand: FMN 200 uM) [µM] | apparent KD of K4 kissing-loop reporter (input ligand: arginine 13.2 mM) [µM] | apparent KD of K4 kissing-loop reporter (input ligand: none) [µM] | apparent KD of K4 kissing-loop reporter [1] [µM] | apparent KD of K4 kissing-loop reporter [2] [µM] |
| --- | --- | --- | --- | --- | --- |
| UAAUAUCCGUCGGCCGCCACUCACCAGUGAUGUUGGAGGAGUGAUGUUCCACGAGUGAUGUUCGAGAGGACCGGGACGGACGAUG [6th] | 0.134 | 0.114 | 0.126 | 0.108 | 0.103 |
| AAUAUAGUGAUGUUAUAUAAGAAGGAGUUACGAGGACCGGUACGGCCGCCACUCGAAACGAGUGAGGGCCCGGGAGAUUGGGCCC [SSTryptA.G] | 0.339 | 0.275 | 0.32 | 0.436 | 0.262 |
| CAAGGACGGCCGUAGGCAUACCGUCGAUUCAAGGAUAUCAAGAGAAUGAGAAGGUGAAGUUUAUACAGUGAUGUUGCUAUAGAGA [theeternabot_sameState_KL_FMN_A_6] | 0.133 | 0.122 | 0.168 | 0.195 | 0.152 |
| GCCGUAGAUGGAAGGAGCGUGGUCUAGAAGCACAAGUGAUGUUUGUGGUAACCUUCUGACCCACAGGUAGGUCGCCAUCUACGGC | 0.0884 | 0.0784 | 0.0857 | 0.0681 | 0.0821 |
| GCAAACCUCAGUGAUGUUGAGAAAUCGGAAGGAGCGCGUGAAAACGCAGGUAGGUCGCCGACACAUGAAGUAUCUUCGUGUUUGC [Arginine A K4 22] | 0.276 | 0.272 | 0.316 | 0.328 | 0.243 |
| AGCAGCAAAUCCUAGUGAUGUUAGGAUAUGUAGGAUAUCGGGAUACCGAGAAGGACAGAAGGAGGAGUGAUGUUCCUAAGCUGCA [FmnAX 24 #DoubleAptamer #DoubleK4 #SwitchBubble] | 0.143 | 0.112 | 0.114 | 0.122 | 0.107 |
| GCUAUGGUAGGAAGGAGCGCUUACUCGUUAAUAAGAGUGAUGUUCGAUAACGAGUAUUUAUAGCAGGUAGGUCGCCUACUAUAGC [Arginine B K4 4] | 0.207 | 0.193 | 0.168 | 0.242 | 0.199 |
| AGCCAUCACACGGCCGCCACUGAGUAGUGAUGUUGCUUGUAAAUCAGUCACCGCAUUAAUGCCGACAGGACCGGGUGCAUCGAGG [theeternabot_exclusion_KL_Trp_B_17] | 0.327 | 0.142 | 0.327 | 0.394 | 0.247 |
| GAUUACAACAGAGUGAUGUUCUGACUUUCUCGAGGACCGGUACGGCCGCCACUCGUUAAACAAAGUGGUUUGCCAAGGCCAACUU | 0.139 | 0.198 | 0.157 | 0.208 | 0.111 |
| GGUAGCAUGGCGGCCGCCACUAAGAGAGUGAUGUUCUCUUAGUUUUUUGAUAUAUUAUCAAUUCUUAGGACCGGGCCAUGCUACC | 0.121 | 0.0799 | 0.0947 | 0.0989 | 0.1 |
| UAACUGCAGUGAUGUUGCAGAUGUCCUGACUAGGAUAUCAGGAAACUGAGAAGGAGUGCCUUCUAAACAUCACAGAAGGUGGACA [KL-SSFMN-A28] | 0.36 | 0.44 | 0.415 | 0.286 | 0.458 |
| AACUCUCAGGCACGCGAGUGAUGUUCGCGGCGAGGACCGGUACGGCCGCCACUCGCGCCUGAGAGAGGUUAUCAAAGAUAGCCAA [whbob_SS_tryp_A] | 0.146 | 0.0513 | 0.116 | 0.118 | 0.223 |
| CGUCGGUAGUGAUGUUGCCACGACGCUUUUAAGGAUAUAAGCUAAGUUAGAAGGUAAGAGAGUCAGCCCGGUGGCCUUAGAGUAG [theeternabot_exclusion_KL_FMN_A_17] | 0.257 | 0.186 | 0.195 | 0.162 | 0.151 |
| UGUAAGCGCGUAGAUACCAGCAGACGAGUGAUGUUCGAGAGAUUAAGGAAAAGAAAGUAAUGCCCUUGGCAGCUAAUCAUAAGCG [whbob_Ex_Theo_B_sa94] | 0.248 | 0.335 | 0.264 | 0.301 | 0.174 |
| ACUAUCAUUACGCAUGGAGUGAUGUUUCAGCGAGGACCGGUACGGCCGCCACUCGUUACGUGGUUAGAGCCAAUGUUCGAGAAGC [theeternabot_exclusion_KL_Trp_A_39] | 1.17 | 0.832 | 0.927 | 1.27 | 0.52 |
| CCUUCCGACACGGCCGCCACUAAUUUCAUCAGAUUGCCCGGAUUUCCAAGAUAGUGAUGUUGUACUAGGACCGGGUGUCAGGUCG [theeternabot_exclusion_KL_Trp_B_16] | 0.875 | 0.68 | 0.816 | 0.76 | 0.775 |
